Results on 13 sequences are retold here after the Immune Epitope Database (IEDB).

Holding throughout (conditions): source organism: Human immunodeficiency virus type 1 (JRCSF ISOLATE)
The target of experiment [1] is HLA-A*03:01. In words: IEDB peptide-MHC binding, purified MHC/competitive/radioactivity; ≥ and ≤ were set here for values at or beyond the usual limits of such assays.
For experiment [2], the target named is HLA-A*11:01. Described as above.
Experiment [3] deals with HLA-A*03:01. The experiment is described as follows: IEDB peptide-MHC binding, purified MHC/competitive/radioactivity; filed as Kd, often an IC50 or EC50 that approximates it; ≥ and ≤ were set here for values at or beyond the usual limits of such assays.
Experiment [4] deals with HLA-A*11:01. The description is as above.

Broadly, the IC50 is the point on the concentration scale where inhibition reaches its midpoint. AIFQSSMTK: the IC50 in the experiment with HLA-A*03:01 [1] was determined as 0.01 µM. As for AVFIHNFKR, the IC50 in the experiment with HLA-A*11:01 [2] turned out to be 0.0033 µM; with HLA-A*03:01 [1], 0.0647 µM. As for KIQNFRVYYR, the IC50 in the experiment with HLA-A*03:01 [1] was found to be 0.344 µM. With MAVFIHNFK, the half-maximal inhibitory concentration (IC50) was 0.02 µM in the experiment with HLA-A*11:01 [2] and 0.647 µM in the experiment with HLA-A*03:01 [1]. Usually Kd stands for the equilibrium constant for the complex coming apart. As to MTKILEPFR, the dissociation constant (Kd) with HLA-A*03:01 [3] was 13.8 µM. With MVHQAISPR, the half-maximal inhibitory concentration (IC50) in the experiment with HLA-A*11:01 [2] was 0.0896 µM; with HLA-A*03:01 [1], 0.0611 µM. As for NTPVFAIKK, the IC50 in the experiment with HLA-A*11:01 [2] came out at 0.1 µM; in the experiment with HLA-A*03:01 [1], 0.333 µM. Consider QMAVFIHNFK, for which, in the experiment with HLA-A*03:01 [1], the half-inhibitory concentration (IC50) stood at 0.0092 µM.

As to QMVHQAISPR, the dissociation constant (Kd) with HLA-A*11:01 [4] turned out to be 6 µM. In addition, the IC50 with HLA-A*03:01 [1] came to 0.423 µM. Take TIKIGGQLK: the values for the half-maximal inhibitory concentration (IC50) in the experiment with HLA-A*11:01 [2] and in the experiment with HLA-A*03:01 [1] were 0.182 µM and 0.0407 µM, respectively.

As for TLFCASDAK, the 50% inhibitory concentration (IC50) with HLA-A*03:01 [1] is 0.118 µM. Turning to TTLFCASDAK, the IC50 turned out to be 0.0273 µM with HLA-A*11:01 [2] and 0.12 µM with HLA-A*03:01 [1]. As to YLAWVPAHK, the concentration for half-maximal inhibition (IC50) in the experiment with HLA-A*03:01 [1] came out at 0.143 µM.
